{"source": "patent US20090214565A1", "about": "(BAYLOR RESEARCH INSTITUTE, published 2009)", "target": "PBMC-flu supernatant", "assay": "cell-based or functional assay"}
{"binder": "ACO-1 (antibody, V domains shown, also called ACO-1 monoclonal antibody; hybridoma ATCC PTA-6557) VH: QVQLQQPGAELVKPGASVKLSCKASGYTFTNYWMHWVKQRPGQGLEWIGEINPSHGRTIYNENFKSKATLTVDKSSITAFMQLSSLTSEDSAVYFCARGGLGPAWFAYWGQGTLVTVSA VL: QIVLTQSPAIMSASPGEKVTLTCSAGSSVDSSYLYWYQQKPGSSPKLWIYSTSNLASGVPARFSGSGSGTSYSLTISSMEAEDAASYFCHQWSSYPFTFGSGTKLEIKR", "values": [{"measurement": "neutralization of PBMC-flu, RG bioassay", "result": "> 50", "unit": "%"}]}
